In the experiment the target is retromer (Homo sapiens, UniProt O75436). As to the kind of experiment: ITC.

A word on the Kd: it is the free concentration of one partner at which half of the binding sites on the other are occupied at equilibrium, for simple one-to-one binding. With AQPELYLLNTMDADSLVSR (in presence of SNX3) [DMT1-II recycling signal], the Kd is about 127 µM.

For the origin of these results see publication PMC5147500 (2016).
